Target: wild-type human dopamine transporter (human) (UniProt Q01959)
Chain of UniProt Q01959 (Q01959 whole entry): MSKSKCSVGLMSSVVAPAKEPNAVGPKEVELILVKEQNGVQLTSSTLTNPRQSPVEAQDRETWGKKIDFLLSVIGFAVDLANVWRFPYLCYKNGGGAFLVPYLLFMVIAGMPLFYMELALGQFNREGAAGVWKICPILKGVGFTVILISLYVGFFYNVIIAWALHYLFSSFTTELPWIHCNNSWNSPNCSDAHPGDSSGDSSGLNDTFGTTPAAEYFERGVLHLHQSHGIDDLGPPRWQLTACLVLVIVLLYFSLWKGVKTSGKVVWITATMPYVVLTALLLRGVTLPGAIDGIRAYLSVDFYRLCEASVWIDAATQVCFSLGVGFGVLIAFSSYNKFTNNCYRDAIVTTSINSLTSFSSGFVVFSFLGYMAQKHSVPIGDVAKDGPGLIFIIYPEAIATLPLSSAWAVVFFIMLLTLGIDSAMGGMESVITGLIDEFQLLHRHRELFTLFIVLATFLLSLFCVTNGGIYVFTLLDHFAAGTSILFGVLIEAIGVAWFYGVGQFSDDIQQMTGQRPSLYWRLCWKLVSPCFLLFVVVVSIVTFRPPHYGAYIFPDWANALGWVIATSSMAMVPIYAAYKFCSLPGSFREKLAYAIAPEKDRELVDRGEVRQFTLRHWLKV

“Recombinant Tat1-86 (from UniProt P04608 1-86) (natural protein)” gave a decrease in DA uptake by WT hDAT in the presence of recombinant Tat1-86 of 31%.
